# Laboratory results taken from paper PMC12808100, “The non-catalytic DNA polymerase ε subunit is an NPF motif recognition protein” (Nature Communications, 2025).
# Molecular target: His6-avi-MBP-tagged POLE2
# Assay: Single-point nHU-MS with recombinant His6-avi-MBP-POLE2 bait, Jurkat extract
# Format: binding, human
# Conditions: significant apparent affinity of endogenous prey protein for POLE2 bait; single-point nHU-MS; Figure S11
# Text: So far, our study only focused on a few hand-picked NPF motifs and studied them as short synthetic peptides. However, many other proteins may be present in the proteome that could bind to POLE2 and their putative NPF motifs are embedded in their natural structures that can greatly affect their binding properties. To investigate interactions between POLE2 and intact, full length proteins proteome-wide, we used nHU-MS experiments with recombinant His6-avi-MBP-tagged POLE2 as bait and purified His6-avi-MBP as a control. Even though we are aware that this recombinant POLE2 may bind to NPF motifs with a somewhat altered affinity, we assumed that this would affect all NPF motif-mediated interactions equally, allowing an unbiased affinity ranking of all identified partners. Single point nHU measurements were performed at 26 μM POLE2 concentration and the recovered supernatant was measured by label free proteomic MS measurements (Fig. 3A, Supplementary Figs. 8A, 9, Supplementary Data 1).
# Single-point nHU experiments with protein baits were carried out nearly identically with two key modifications. First, the resin saturation step was carried out by mixing 50 μl streptavidin resin with 0.5−1 ml 50 μM biotinylated protein solution and the mixture was incubated for 1.5 h at 4 °C with constant agitation. Second, instead of using estimated bait concentrations, we measured it experimentally. An extra aliquot of resin stock was prepared alongside the nHU samples that were identically processed that were used to eluate the immobilized proteins under harsh conditions, in order to experimentally quantify the Cbait by using densitometry of Coomassie stained SDS-PAGE that included a protein calibration series. For this, 50 μl bait-saturated resin aliquots were mixed with 200 μl 4x Laemmli Sample Buffer (120 mM Tris-HCl pH 7, 8% SDS, 100 mM DTT, 32% glycerol, 0.004% bromphenol blue, 1% β-mercaptoethanol), instead of cell extract. After 15 min incubation at 95 °C, these samples were analyzed by SDS-PAGE using protein calibration standard, made from recombinant MBP. Densitometry was carried out after Coomassie staining on raw Tif images by using Fiji ImageJ 1.53c and experimental bait concentration were determined by adjusting for molecular weight differences between MBP and MBP-POLE2 constructs.
# Samples were digested overnight at 37 °C.
row,Molecule,pKapp_sign
1,"FBXO45 (protein, UniProt P0C2W1 2-286, looked up) F-box/SPRY domain-containing …: AAPAPGAGAASGGAGCSGGGAGAGAGSGSGAAGAGGRLPSRVLELVFSYLELSELRSCALVCKHWYRCLHGDENSEVWRSLCARSLAEEALRTDILCNLPSYKAKIRAFQHAFSTNDCSRNVYIKKNGFTLHRNPIAQSTDGARTKIGFSEGRHAWEVWWEGPLGTVAVIGIATKRAPMQCQGYVALLGSDDQSWGWNLVDNNLLHNGEVNGSFPQCNNAPKYQIGERIRVILDMEDKTLAFERGYEFLGVAFRGLPKVCLYPAVSAVYGNTEVTLVYLGKPLDG",4.883
2,"LDB1 (protein, UniProt Q86U70 2-411, looked up) LIM domain-binding protein 1: SVGCACPGCSSKSFKLYSPKEPPNGNAFPPFHPGTMLDRDVGPTPMYPPTYLEPGIGRHTPYGNQTDYRIFELNKRLQNWTEECDNLWWDAFTTEFFEDDAMLTITFCLEDGPKRYTIGRTLIPRYFRSIFEGGATELYYVLKHPKEAFHSNFVSLDCDQGSMVTQHGKPMFTQVCVEGRLYLEFMFDDMMRIKTWHFSIRQHRELIPRSILAMHAQDPQMLDQLSKNITRCGLSNSTLNYLRLCVILEPMQELMSRHKTYSLSPRDCLKTCLFQKWQRMVAPPAEPTRQQPSKRRKRKMSGGSTMSSGGGNTNNSNSKKKSPASTFALSSQVPDVMVVGEPTLMGGEFGDEDERLITRLENTQFDAANGIDDEDSFNNSPALGANSPWNSKPPSSQESKSENPTSQASQ",4.689
3,"DOK1 (protein, UniProt Q99704 1-481, looked up) Docking protein 1: MDGAVMEGPLFLQSQRFGTKRWRKTWAVLYPASPHGVARLEFFDHKGSSSGGGRGSSRRLDCKVIRLAECVSVAPVTVETPPEPGATAFRLDTAQRSHLLAADAPSSAAWVQTLCRNAFPKGSWTLAPTDNPPKLSALEMLENSLYSPTWEGSQFWVTVQRTEAAERCGLHGSYVLRVEAERLTLLTVGAQSQILEPLLSWPYTLLRRYGRDKVMFSFEAGRRCPSGPGTFTFQTAQGNDIFQAVETAIHRQKAQGKAGQGHDVLRADSHEGEVAEGKLPSPPGPQELLDSPPALYAEPLDSLRIAPCPSQDSLYSDPLDSTSAQAGEGVQRKKPLYWDLYEHAQQQLLKAKLTDPKEDPIYDEPEGLAPVPPQGLYDLPREPKDAWWCQARVKEEGYELPYNPATDDYAVPPPRSTKPLLAPKPQGPAFPEPGTATGSGIKSHNSALYSQVQKSGASGSWDCGLSRVGTDKTGVKSEGST",4.232
4,"PITPNA (protein, UniProt Q00169 2-270, looked up) Phosphatidylinositol transfer …: VLLKEYRVILPVSVDEYQVGQLYSVAEASKNETGGGEGVEVLVNEPYEKDGEKGQYTHKIYHLQSKVPTFVRMLAPEGALNIHEKAWNAYPYCRTVITNEYMKEDFLIKIETWHKPDLGTQENVHKLEPEAWKHVEAVYIDIADRSQVLSKDYKAEEDPAKFKSIKTGRGPLGPNWKQELVNQKDCPYMCAYKLVTVKFKWWGLQNKVENFIHKQERRLFTNFHRQLFCWLDKWVDLTMDDIRRMEEETKRQLDEMRQKDPVKGMTADD",4.604
5,"CAPN6 (protein, UniProt Q9Y6Q1 1-641, looked up) Calpain-6: MGPPLKLFKNQKYQELKQECIKDSRLFCDPTFLPENDSLFYNRLLPGKVVWKRPQDICDDPHLIVGNISNHQLTQGRLGHKPMVSAFSCLAVQESHWTKTIPNHKEQEWDPQKTEKYAGIFHFRFWHFGEWTEVVIDDLLPTINGDLVFSFSTSMNEFWNALLEKAYAKLLGCYEALDGLTITDIIVDFTGTLAETVDMQKGRYTELVEEKYKLFGELYKTFTKGGLICCSIESPNQEEQEVETDWGLLKGHTYTMTDIRKIRLGERLVEVFSAEKVYMVRLRNPLGRQEWSGPWSEISEEWQQLTASDRKNLGLVMSDDGEFWMSLEDFCRNFHKLNVCRNVNNPIFGRKELESVLGCWTVDDDPLMNRSGGCYNNRDTFLQNPQYIFTVPEDGHKVIMSLQQKDLRTYRRMGRPDNYIIGFELFKVEMNRKFRLHHLYIQERAGTSTYIDTRTVFLSKYLKKGNYVLVPTMFQHGRTSEFLLRIFSEVPVQLRELTLDMPKMSCWNLARGYPKVVTQITVHSAEDLEKKYANETVNPYLVIKCGKEEVRSPVQKNTVHAIFDTQAIFYRRTTDIPIIVQVWNSRKFCDQFLGQVTLDADPSDCRDLKSLYLRKKGGPTAKVKQGHISFKVISSDDLTEL",5.695
6,"PYGB (protein, UniProt P11216 2-843, looked up) Glycogen phosphorylase, brain …: AKPLTDSEKRKQISVRGLAGLGDVAEVRKSFNRHLHFTLVKDRNVATPRDYFFALAHTVRDHLVGRWIRTQQHYYERDPKRIYYLSLEFYMGRTLQNTMVNLGLQNACDEAIYQLGLDLEELEEIEEDAGLGNGGLGRLAACFLDSMATLGLAAYGYGIRYEFGIFNQKIVNGWQVEEADDWLRYGNPWEKARPEYMLPVHFYGRVEHTPDGVKWLDTQVVLAMPYDTPVPGYKNNTVNTMRLWSAKAPNDFKLQDFNVGDYIEAVLDRNLAENISRVLYPNDNFFEGKELRLKQEYFVVAATLQDIIRRFKSSKFGCRDPVRTCFETFPDKVAIQLNDTHPALSIPELMRILVDVEKVDWDKAWEITKKTCAYTNHTVLPEALERWPVSMFEKLLPRHLEIIYAINQRHLDHVAALFPGDVDRLRRMSVIEEGDCKRINMAHLCVIGSHAVNGVARIHSEIVKQSVFKDFYELEPEKFQNKTNGITPRRWLLLCNPGLADTIVEKIGEEFLTDLSQLKKLLPLVSDEVFIRDVAKVKQENKLKFSAFLEKEYKVKINPSSMFDVHVKRIHEYKRQLLNCLHVVTLYNRIKRDPAKAFVPRTVMIGGKAAPGYHMAKLIIKLVTSIGDVVNHDPVVGDRLKVIFLENYRVSLAEKVIPAADLSQQISTAGTEASGTGNMKFMLNGALTIGTMDGANVEMAEEAGAENLFIFGLRVEDVEALDRKGYNAREYYDHLPELKQAVDQISSGFFSPKEPDCFKDIVNMLMHHDRFKVFADYEAYMQCQAQVDQLYRNPKEWTKKVIRNIACSGKFSSDRTITEYAREIWGVEPSDLQIPPPNIPRD",4.228
7,"URM1 (protein, UniProt Q9BTM9 1-101, looked up) Ubiquitin-related modifier 1: MAAPLSVEVEFGGGAELLFDGIKKHRVTLPGQEEPWDIRNLLIWIKKNLLKERPELFIQGDSVRPGILVLINDADWELLGELDYQLQDQDSVLFISTLHGG",4.219
8,"NUP35 (protein, UniProt Q8NFH5 1-326, looked up) Nucleoporin NUP35: MAAFAVEPQGPALGSEPMMLGSPTSPKPGVNAQFLPGFLMGDLPAPVTPQPRSISGPSVGVMEMRSPLLAGGSPPQPVVPAHKDKSGAPPVRSIYDDISSPGLGSTPLTSRRQPNISVMQSPLVGVTSTPGTGQSMFSPASIGQPRKTTLSPAQLDPFYTQGDSLTSEDHLDDSWVTVFGFPQASASYILLQFAQYGNILKHVMSNTGNWMHIRYQSKLQARKALSKDGRIFGESIMIGVKPCIDKSVMESSDRCALSSPSLAFTPPIKTLGTPTQPGSTPRISTMRPLATAYKASTSDYQVISDRQTPKKDESLVSKAMEYMFGW",4.141
9,"ATAD3A (protein, UniProt Q9NVI7 2-586, looked up) ATPase family AAA …: SWLFGINKGPKGEGAGPPPPLPPAQPGAEGGGDRGLGDRPAPKDKWSNFDPTGLERAAKAARELEHSRYAKDALNLAQMQEQTLQLEQQSKLKEYEAAVEQLKSEQIRAQAEERRKTLSEETRQHQARAQYQDKLARQRYEDQLKQQQLLNEENLRKQEESVQKQEAMRRATVEREMELRHKNEMLRVEAEARARAKAERENADIIREQIRLKAAEHRQTVLESIRTAGTLFGEGFRAFVTDWDKVTATVAGLTLLAVGVYSAKNATLVAGRFIEARLGKPSLVRETSRITVLEALRHPIQVSRRLLSRPQDALEGVVLSPSLEARVRDIAIATRNTKKNRSLYRNILMYGPPGTGKTLFAKKLALHSGMDYAIMTGGDVAPMGREGVTAMHKLFDWANTSRRGLLLFVDEADAFLRKRATEKISEDLRATLNAFLYRTGQHSNKFMLVLASNQPEQFDWAINDRINEMVHFDLPGQEERERLVRMYFDKYVLKPATEGKQRLKLAQFDYGRKCSEVARLTEGMSGREIAQLAVSWQATAYASEDGVLTEAMMDTRVQDAVQQHQQKMCWLKAEGPGRGDEPSPS",4.126
10,"IVD (protein, UniProt P26440 33-426, looked up) Isovaleryl-CoA dehydrogenase, …: HSLLPVDDAINGLSEEQRQLRQTMAKFLQEHLAPKAQEIDRSNEFKNLREFWKQLGNLGVLGITAPVQYGGSGLGYLEHVLVMEEISRASGAVGLSYGAHSNLCINQLVRNGNEAQKEKYLPKLISGEYIGALAMSEPNAGSDVVSMKLKAEKKGNHYILNGNKFWITNGPDADVLIVYAKTDLAAVPASRGITAFIVEKGMPGFSTSKKLDKLGMRGSNTCELIFEDCKIPAANILGHENKGVYVLMSGLDLERLVLAGGPLGLMQAVLDHTIPYLHVREAFGQKIGHFQLMQGKMADMYTRLMACRQYVYNVAKACDEGHCTAKDCAGVILYSAECATQVALDGIQCFGGNGYINDFPMGRFLRDAKLYEIGAGTSEVRRLVIGRAFNADFH",4.276
11,"SEC14L4 (protein, UniProt Q9UDX3 1-406, looked up) SEC14-like protein 4: MSSRVGDLSPQQQEALARFRENLQDLLPILPNADDYFLLRWLRARNFDLQKSEDMLRRHMEFRKQQDLDNIVTWQPPEVIQLYDSGGLCGYDYEGCPVYFNIIGSLDPKGLLLSASKQDMIRKRIKVCELLLHECELQTQKLGRKIEMALMVFDMEGLSLKHLWKPAVEVYQQFFSILEANYPETLKNLIVIRAPKLFPVAFNLVKSFMSEETRRKIVILGDNWKQELTKFISPDQLPVEFGGTMTDPDGNPKCLTKINYGGEVPKSYYLCEQVRLQYEHTRSVGRGSSLQVENEILFPGCVLRWQFASDGGDIGFGVFLKTKMGEQQSAREMTEVLPSQRYNAHMVPEDGSLTCLQAGVYVLRFDNTYSRMHAKKLSYTVEVLLPDKASEETLQSLKAMRPSPTQ",5.194
